Test results: doi:10.1101/2020.02.11.943977

Target: Replication protein A (RPA heterotrimer) (human) (UniProt P27694+P15927+P35244)
Assay: competition

Sequence of Replication protein A (RPA heterotrimer) (human) (P27694 whole entry, chain 1 of 3): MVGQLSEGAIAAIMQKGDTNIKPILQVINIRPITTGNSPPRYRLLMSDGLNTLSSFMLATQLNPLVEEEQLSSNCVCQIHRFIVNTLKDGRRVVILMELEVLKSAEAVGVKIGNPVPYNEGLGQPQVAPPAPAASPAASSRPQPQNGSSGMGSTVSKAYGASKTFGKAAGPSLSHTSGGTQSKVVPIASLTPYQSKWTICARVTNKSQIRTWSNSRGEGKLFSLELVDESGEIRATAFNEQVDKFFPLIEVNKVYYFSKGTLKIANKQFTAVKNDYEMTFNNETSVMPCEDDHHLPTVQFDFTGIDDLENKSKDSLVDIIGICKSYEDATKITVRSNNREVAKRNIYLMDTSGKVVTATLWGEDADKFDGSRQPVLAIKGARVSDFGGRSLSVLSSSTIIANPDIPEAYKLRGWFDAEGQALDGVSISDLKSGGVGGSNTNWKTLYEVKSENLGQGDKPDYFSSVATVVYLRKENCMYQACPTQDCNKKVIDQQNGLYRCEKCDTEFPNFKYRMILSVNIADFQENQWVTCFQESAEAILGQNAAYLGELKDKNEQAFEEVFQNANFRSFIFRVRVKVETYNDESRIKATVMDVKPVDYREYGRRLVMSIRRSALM
Sequence of Replication protein A (RPA heterotrimer) (human) (P15927 whole entry, chain 2 of 3): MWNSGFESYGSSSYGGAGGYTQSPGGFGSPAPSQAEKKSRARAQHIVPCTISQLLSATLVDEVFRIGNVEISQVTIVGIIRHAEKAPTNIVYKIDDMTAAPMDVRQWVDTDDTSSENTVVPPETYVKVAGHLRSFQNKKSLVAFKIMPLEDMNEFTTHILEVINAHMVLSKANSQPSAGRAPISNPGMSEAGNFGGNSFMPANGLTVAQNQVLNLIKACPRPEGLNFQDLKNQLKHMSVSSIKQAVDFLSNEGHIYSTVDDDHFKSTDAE
Sequence of Replication protein A (RPA heterotrimer) (human) (P35244 whole entry, chain 3 of 3): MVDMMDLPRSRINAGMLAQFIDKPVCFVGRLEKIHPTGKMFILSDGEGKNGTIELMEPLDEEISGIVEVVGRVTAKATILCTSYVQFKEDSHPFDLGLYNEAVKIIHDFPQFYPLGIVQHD

Substance: pHSG299 supercoiled plasmid
- binding signal (scale: fold lower affinity than RNA 501): 500
- binding signal (scale: fold lower affinity than ssDNA 211): 33000
